According to the supplement of paper PMC7125110:
± gives the standard error. Variants at the floor of the assay were thinned out.

B1: glmS ribozyme (parent)
chain: AUAAAAGCGCCAGAACUACAGAAAUGUAGUUGACGAGGAGGAGGUUUAUCGAAUUUUCGGCGGAUGCCUCCAAA

Experiments:
Details in all cases: with glucosamine-6-phosphate
glucosamine-6-phosphate [1] = variants of: B1; experiment: self-cleavage kobs at 640 uM GlcN6P; higher = faster cleavage; RNA array
Summary of the method: (§1)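 Barcoded ribozyme variants were transcribed in situ on sequenced MiSeq chips by E. coli RNA polymerase. At 37 °C, a hybridised Cy3 probe tracked them while glucosamine-6-phosphate (40 μM to 10 mM) in HEPES/KCl/Mg(OAc)2 buffer flowed in and tiles were imaged over ~14 h. Per-tile medians of signals normalised to baseline and to non-cleaving reference variants were fit to one- or two-exponential decays, giving kobs. kcat and KM came from weighted Michaelis–Menten fits across concentrations.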

glucosamine-6-phosphate [2] = variants of: B1; experiment: self-cleavage kobs at 2500 uM GlcN6P; higher = faster cleavage; RNA array
Summary of the method: as §1

glucosamine-6-phosphate [3] = variants of: B1; experiment: self-cleavage kobs at 10000 uM GlcN6P; higher = faster cleavage; RNA array
Summary of the method: as §1

G38U C50G A64G
self-cleavage kobs at 640 uM GlcN6P (glucosamine-6-phosphate [1]): 6.44e-05 ± 2.9e-05 s⁻¹
self-cleavage kobs at 2500 uM GlcN6P (glucosamine-6-phosphate [2]): 3.85e-05 ± 1.7e-05 s⁻¹

A39C U55G C67U
self-cleavage kobs at 640 uM GlcN6P (glucosamine-6-phosphate [1]): 7.28e-05 ± 1.4e-05 s⁻¹

A36C U49C
self-cleavage kobs at 640 uM GlcN6P (glucosamine-6-phosphate [1]): < 1e-05 s⁻¹
self-cleavage kobs at 10000 uM GlcN6P (glucosamine-6-phosphate [3]): < 1e-05 s⁻¹

A36C U54G G63A
self-cleavage kobs at 640 uM GlcN6P (glucosamine-6-phosphate [1]): < 1e-05 s⁻¹

G35U A36G C61A
self-cleavage kobs at 640 uM GlcN6P (glucosamine-6-phosphate [1]): < 1e-05 s⁻¹

G37U U65A G66C
self-cleavage kobs at 640 uM GlcN6P (glucosamine-6-phosphate [1]): < 1e-05 s⁻¹

A39U G43C G44A G51U
self-cleavage kobs at 640 uM GlcN6P (glucosamine-6-phosphate [1]): < 1e-05 s⁻¹
self-cleavage kobs at 2500 uM GlcN6P (glucosamine-6-phosphate [2]): < 1e-05 s⁻¹

C34A G35U A36U
self-cleavage kobs at 640 uM GlcN6P (glucosamine-6-phosphate [1]): < 1e-05 s⁻¹
self-cleavage kobs at 10000 uM GlcN6P (glucosamine-6-phosphate [3]): < 1e-05 s⁻¹

C34A A39C G59C C61G
self-cleavage kobs at 640 uM GlcN6P (glucosamine-6-phosphate [1]): < 1e-05 s⁻¹
self-cleavage kobs at 2500 uM GlcN6P (glucosamine-6-phosphate [2]): < 1e-05 s⁻¹

A42G G51U C70U
self-cleavage kobs at 640 uM GlcN6P (glucosamine-6-phosphate [1]): < 1e-05 s⁻¹

G40U G41C C70A
self-cleavage kobs at 640 uM GlcN6P (glucosamine-6-phosphate [1]): 6.65e-05 ± 1.8e-05 s⁻¹
self-cleavage kobs at 2500 uM GlcN6P (glucosamine-6-phosphate [2]): 0.000546 ± 0.00013 s⁻¹

G41A A42G U45G
self-cleavage kobs at 640 uM GlcN6P (glucosamine-6-phosphate [1]): 0.0066 ± 0.002 s⁻¹

A39U C67A C68U
self-cleavage kobs at 640 uM GlcN6P (glucosamine-6-phosphate [1]): 3.93e-05 ± 1.2e-05 s⁻¹
self-cleavage kobs at 2500 uM GlcN6P (glucosamine-6-phosphate [2]): 0.000112 ± 3e-05 s⁻¹

G32A U65A C71U
self-cleavage kobs at 640 uM GlcN6P (glucosamine-6-phosphate [1]): 5.38e-05 ± 1.4e-05 s⁻¹
self-cleavage kobs at 2500 uM GlcN6P (glucosamine-6-phosphate [2]): 9.54e-05 ± 2.4e-05 s⁻¹

C34U G44A A48U U56A G60A
self-cleavage kobs at 640 uM GlcN6P (glucosamine-6-phosphate [1]): < 1e-05 s⁻¹

A36G A39C A52U U57A
self-cleavage kobs at 640 uM GlcN6P (glucosamine-6-phosphate [1]): < 1e-05 s⁻¹

A33U G35C G63U
self-cleavage kobs at 640 uM GlcN6P (glucosamine-6-phosphate [1]): < 1e-05 s⁻¹
self-cleavage kobs at 2500 uM GlcN6P (glucosamine-6-phosphate [2]): < 1e-05 s⁻¹

G41A G51U C68U C70G
self-cleavage kobs at 640 uM GlcN6P (glucosamine-6-phosphate [1]): < 1e-05 s⁻¹
self-cleavage kobs at 2500 uM GlcN6P (glucosamine-6-phosphate [2]): < 1e-05 s⁻¹

C34A U54A A64C
self-cleavage kobs at 640 uM GlcN6P (glucosamine-6-phosphate [1]): < 1e-05 s⁻¹
self-cleavage kobs at 2500 uM GlcN6P (glucosamine-6-phosphate [2]): < 1e-05 s⁻¹

G32C U47G G59C
self-cleavage kobs at 640 uM GlcN6P (glucosamine-6-phosphate [1]): < 1e-05 s⁻¹
self-cleavage kobs at 2500 uM GlcN6P (glucosamine-6-phosphate [2]): < 1e-05 s⁻¹

A36G G43A G59U
self-cleavage kobs at 640 uM GlcN6P (glucosamine-6-phosphate [1]): < 1e-05 s⁻¹
self-cleavage kobs at 2500 uM GlcN6P (glucosamine-6-phosphate [2]): < 1e-05 s⁻¹

G32U A36U G62U
self-cleavage kobs at 640 uM GlcN6P (glucosamine-6-phosphate [1]): < 1e-05 s⁻¹

G40A G51A G59A
self-cleavage kobs at 640 uM GlcN6P (glucosamine-6-phosphate [1]): < 1e-05 s⁻¹

C34G G37A U45A C58A
self-cleavage kobs at 640 uM GlcN6P (glucosamine-6-phosphate [1]): < 1e-05 s⁻¹

G38A U54G C71U
self-cleavage kobs at 640 uM GlcN6P (glucosamine-6-phosphate [1]): < 1e-05 s⁻¹

G35C A36U G38A
self-cleavage kobs at 640 uM GlcN6P (glucosamine-6-phosphate [1]): < 1e-05 s⁻¹

G37A U55C U56G
self-cleavage kobs at 640 uM GlcN6P (glucosamine-6-phosphate [1]): 0.000171 ± 5.1e-05 s⁻¹

C34G A39U U49G
self-cleavage kobs at 640 uM GlcN6P (glucosamine-6-phosphate [1]): < 1e-05 s⁻¹

G40C G41A G43U
self-cleavage kobs at 640 uM GlcN6P (glucosamine-6-phosphate [1]): < 1e-05 s⁻¹

A33U G44U A48C
self-cleavage kobs at 640 uM GlcN6P (glucosamine-6-phosphate [1]): < 1e-05 s⁻¹

A33G G51A U55C C68A
self-cleavage kobs at 640 uM GlcN6P (glucosamine-6-phosphate [1]): < 1e-05 s⁻¹

G41U G43U U45C A53U C71U
self-cleavage kobs at 640 uM GlcN6P (glucosamine-6-phosphate [1]): < 1e-05 s⁻¹
self-cleavage kobs at 2500 uM GlcN6P (glucosamine-6-phosphate [2]): < 1e-05 s⁻¹

A33C G66C
self-cleavage kobs at 640 uM GlcN6P (glucosamine-6-phosphate [1]): < 1e-05 s⁻¹

G32C G41A U46G C71U
self-cleavage kobs at 640 uM GlcN6P (glucosamine-6-phosphate [1]): < 1e-05 s⁻¹
self-cleavage kobs at 2500 uM GlcN6P (glucosamine-6-phosphate [2]): < 1e-05 s⁻¹

G32U A33G
self-cleavage kobs at 640 uM GlcN6P (glucosamine-6-phosphate [1]): < 1e-05 s⁻¹

G38A G40U U65C
self-cleavage kobs at 640 uM GlcN6P (glucosamine-6-phosphate [1]): < 1e-05 s⁻¹

G32U A42C C58U
self-cleavage kobs at 640 uM GlcN6P (glucosamine-6-phosphate [1]): < 1e-05 s⁻¹
self-cleavage kobs at 2500 uM GlcN6P (glucosamine-6-phosphate [2]): < 1e-05 s⁻¹
